Data: the supplement of paper PMC10126150
± gives the standard deviation of the averaged measurements.

Tested on: ATP
Test: switch fluorescence ratio, 500 uM ATP over buffer (Cy3 cluster intensity, sum of 5 cycles each) (fold (ratio)); higher = stronger signal-on switching upon ATP binding; sequences stand for … in TCGTCGGCAGCGTCAGATGTGTATAAGAGACAGTTTTTTTTTTTTTTTTTTTTTTTTT…TC
Details: aptamer strand: ATP DNA aptamer (quencher-CACCTGGGGGAGTATTGCGGAGGAAGG + anchor), 100 nM annealed; ATP concentration: 500 uM
How it was run: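 Exposure to 500 uM ATP lasted 15 min at 22 °C before imaging, and a selection-buffer image was taken beforehand, for Cy3-labelled switching-strand clusters on a modified Illumina MiSeq flow-cell annealed to 100 nM quencher-labelled ATP aptamer. Five buffer/ATP cycles were run with NaOH stripping and re-annealing between them. The fluorescence ratio per cluster is summed target-cycle over summed buffer-cycle Cy3 intensity, averaged per switch-domain sequence. Clusters outside 100-1000 RFU were excluded.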

Sequence	switch fluorescence ratio
GGTTTGACGG	1.01 ± 0.053
GGTTTGATGT	0.975 ± 0.023
GGTTTGCAGC	0.975 ± 0.021
GGTTTGTCGT	0.957 ± 0.04
GGTTTGTGTG	0.991 ± 0.018
GGTTTTAAAT	0.98195 ± 0.00028
GGTTTTAGCT	0.997 ± 0.016
GGTTTTAGGG	0.996 ± 0.039
GGTTTTAGTG	0.967 ± 0.037
GGTTTTATGC	0.985 ± 0.0053
GGTTTTATGG	0.988 ± 0.027
GGTTTTATTG	0.987 ± 0.044
GGTTTTATTT	0.984 ± 0.068
GGTTTTCGTT	0.99 ± 0.021
GGTTTTCTCG	1.03 ± 0.023
GGTTTTCTGG	1.02 ± 0.027
GGTTTTGATC	0.972 ± 0.047
GGTTTTGGCC	1.02 ± 0.03
GGTTTTTAAA	1 ± 0.062
GGTTTTTCGT	0.977 ± 0.024
GGTTTTTGCT	0.9584 ± 0.0068
GGTTTTTGTC	1.01 ± 0.013
GGTTTTTTAT	1.02 ± 0.019
GTAAAAAGTG	1.05 ± 0.17
GTAAAATAGA	1.01 ± 0.034

Sequence	switch fluorescence ratio
GTAAAGGGGG	0.998 ± 0.023
GTAAATTTGA	1.03 ± 0.068
GTAAATTTGC	1.01 ± 0.013
GTAACCGGTA	1.02 ± 0.024
GTAACTGGGA	1.009 ± 0.0093
GTAAGAAGTG	0.941 ± 0.033
GTAAGCCCGC	1 ± 0.053
GTAAGGGATG	1.01 ± 0.016
GTAAGGTAAG	1.05 ± 0.015
GTAAGTAGCG	0.968 ± 0.02
GTAATAAATT	1.02 ± 0.092
GTAATAGTGT	0.981 ± 0.018
GTAATATCGG	0.998 ± 0.018
GTAATGCCAG	0.986 ± 0.031
GTAATGGCGG	1.013 ± 0.0019
GTAATGTGGG	0.972 ± 0.022
GTAATTGGTG	0.992 ± 0.014
GTAATTTTGA	1.01 ± 0.057
GTACGACAAG	1.11 ± 0.042
GTACGGGGTT	0.993 ± 0.023
GTACGGTTTT	0.994 ± 0.073
GTACTAAATT	1 ± 0.023
GTACTTTAAT	1.034 ± 0.0036
GTAGAAATTC	1.24 ± 0.048
GTAGCAGACG	1.16 ± 0.013

Sequence	switch fluorescence ratio
GTAGCAGCAG	1.17 ± 0.018
GTAGCGGGAG	1.057 ± 0.0053
GTAGCGGGGT	1.006 ± 0.0054
GTAGGAGGGG	0.985 ± 0.011
GTAGGAGGTG	1.07 ± 0.019
GTAGGATTTC	1.01 ± 0.027
GTAGGGCGGG	0.979 ± 0.043
GTAGGGCGGT	0.955 ± 0.026
GTAGGGCGTA	0.9635 ± 0.0073
GTAGGGGATT	1.029 ± 0.006
GTAGGGGGGG	0.999 ± 0.051
GTAGGGGTTG	1.01 ± 0.053
GTAGGTCGAC	1.01 ± 0.012
GTAGTATTGG	0.982 ± 0.028
GTAGTCGGGT	1.006 ± 0.0044
GTAGTTACTT	0.995 ± 0.051
GTAGTTCGCC	1.02 ± 0.023
GTAGTTCTAG	0.9852 ± 0.0081
GTAGTTCTGC	1 ± 0.018
GTAGTTTGAA	0.989 ± 0.036
GTAGTTTTGG	1.01 ± 0.026
GTATAAATGT	0.984 ± 0.051
GTATAAGGGT	1.01 ± 0.018
GTATAGGGAC	1.03 ± 0.03
GTATATATAT	0.979 ± 0.028

Sequence	switch fluorescence ratio
GTATCCGGGA	1.02 ± 0.057
GTATCTGGGT	0.997 ± 0.011
GTATGAGTCG	1.01 ± 0.085
GTATGATTGT	0.994 ± 0.027
GTATGATTTA	0.989 ± 0.037
GTATGCAGGG	0.989 ± 0.035
GTATGGAGAG	1.0111 ± 6.5e-05
GTATGGATTC	0.987 ± 0.057
GTATGGCGAC	1.02 ± 0.011
GTATGGGACG	1.003 ± 0.006
GTATGGGATA	1.01 ± 0.035
GTATGGGTGG	1 ± 0.024
GTATGTGGGT	1.023 ± 0.0072
GTATTAAAAG	1 ± 0.049
GTATTAGGTG	1.03 ± 0.048
GTATTATGCG	1.02 ± 0.028
GTATTCAGGT	0.9921 ± 0.0035
GTATTCATTT	0.982 ± 0.036
GTATTCTGTT	0.997 ± 0.013
GTATTGTGGT	0.967 ± 0.017
GTATTTAGGA	0.992 ± 0.011
GTATTTGGGG	0.985 ± 0.034
GTATTTTTTT	0.967 ± 0.013
GTCAAATTGT	0.992 ± 0.017
GTCAAGGGGA	1.02 ± 0.015

Sequence	switch fluorescence ratio
GTCACCTTGA	1.01 ± 0.014
GTCAGAACTA	0.9786 ± 0.0095
GTCAGAGGGT	0.994 ± 0.013
GTCAGATGGG	0.948 ± 0.01
GTCAGCATTT	1.03 ± 0.038
GTCAGCGGTG	0.9993 ± 0.009
GTCAGGGGGG	1.02 ± 0.081
GTCAGTTTTT	0.99392 ± 0.00038
GTCATCTGGG	0.982 ± 0.017
GTCATTAACT	1.02 ± 0.027
GTCATTGTAT	0.966 ± 0.028
GTCATTTTTG	1.02 ± 0.025
GTCCCCACAG	1.103 ± 0.007
GTCGAAGAG	0.987 ± 0.016
GTCGAATTAT	0.999 ± 0.019
GTCGAGAAGG	0.991 ± 0.009
GTCGAGAGAA	1.01 ± 0.011
GTCGAGGGGC	0.968 ± 0.049
GTCGCGTAGG	1.03 ± 0.024
GTCGCTTGTC	0.995 ± 0.023
GTCGGCGGGG	0.98048 ± 0.0006
GTCGGGGGGA	0.993 ± 0.014
GTCGGGGTTG	0.971 ± 0.014
GTCGGTTGGA	0.977 ± 0.036
GTCGGTTGTG	0.974 ± 0.055

Sequence	switch fluorescence ratio
GTCGTAAAGG	0.998 ± 0.021
GTCGTAACAG	0.9857 ± 0.0047
GTCGTAGGGG	1.03 ± 0.018
GTCGTTCTGA	0.99257 ± 0.00085
GTCTAACGCG	0.9698 ± 0.0072
GTCTAACTTA	1.01 ± 0.033
GTCTATAATT	0.9879 ± 0.0048
GTCTCAAGGG	0.981 ± 0.039
GTCTGAAGGA	0.9791 ± 0.0055
GTCTGAGGCT	0.9853 ± 0.0076
GTCTGAGGGG	0.9965 ± 0.0061
GTCTGATTTG	0.999 ± 0.023
GTCTGGCTAC	1.22 ± 0.061
GTCTGTTCTT	0.951 ± 0.019
GTCTTTAAGG	0.964 ± 0.036
GTGAAAAAGA	1.005 ± 0.0075
GTGAAAAGCA	1.04 ± 0.014
GTGAAGGAGC	0.995 ± 0.017
GTGAAGGGTT	0.993 ± 0.039
GTGACACACC	1.15 ± 0.039
GTGACCCGGA	0.97057 ± 0.00025
GTGAGAGCTG	0.952 ± 0.015
GTGAGCCGGG	1.01 ± 0.014
GTGAGCGGGG	0.974 ± 0.037
GTGAGGATTT	0.986 ± 0.013

Sequence	switch fluorescence ratio
GTGAGGCCGC	1.0626 ± 0.001
GTGAGGCGCT	1.03 ± 0.011
GTGAGGCGGG	1.009 ± 0.0024
GTGAGGGATA	0.984 ± 0.043
GTGAGGGGGT	1.06 ± 0.14
GTGAGTGGGG	0.972 ± 0.021
GTGAGTTTTA	0.971 ± 0.019
GTGATCAAGC	0.984 ± 0.028
GTGATCAGTG	0.98698 ± 0.00016
GTGATCATCG	1.0081 ± 0.00023
GTGATGGGAC	1.02 ± 0.0077
GTGATGTTGT	0.977 ± 0.037
GTGATTGATC	1.04 ± 0.023
GTGATTGGGA	0.963 ± 0.058
GTGATTTCGG	1.022 ± 0.0095
GTGATTTTTG	1.01 ± 0.063
GTGCAAATTG	0.997 ± 0.024
GTGCAAGGTA	1 ± 0.014
GTGCAATAGT	3.71 ± 0.63
GTGCAGGTGC	1.37 ± 0.026
GTGCCCACGT	1 ± 0.039
GTGCCTCCTG	1.03 ± 0.018
GTGCCTTAGG	0.99797 ± 0.00039
GTGCGCATGG	1.13 ± 0.067
GTGCGGAGTG	0.97 ± 0.041

Sequence	switch fluorescence ratio
GTGCGGCCAA	1.02 ± 0.044
GTGCGTCTTT	1.01 ± 0.041
GTGCTAAATA	1.02 ± 0.0067
GTGCTAACCT	1.271 ± 0.011
GTGCTGGGCG	0.994 ± 0.028
GTGCTGGGGG	1.02 ± 0.02
GTGCTTGCGG	1.01 ± 0.036
GTGCTTGGAA	0.994 ± 0.033
GTGGAAAATT	0.987 ± 0.018
GTGGAAGAGT	0.999 ± 0.018
GTGGAAGGTT	0.995 ± 0.014
GTGGACAGGC	1 ± 0.02
GTGGACCTGA	1.07 ± 0.02
GTGGACTTCG	1.0178 ± 0.001
GTGGAGTTTG	0.999 ± 0.012
GTGGATAGTC	0.992 ± 0.066
GTGGATATTG	1 ± 0.028
GTGGATGCGG	0.962 ± 0.038
GTGGATGGGG	1.05 ± 0.13
GTGGCAAAAG	1.02 ± 0.033
GTGGCAGGAA	0.964 ± 0.068
GTGGCGAAGG	0.993 ± 0.014
GTGGCGCCGC	0.959 ± 0.047
GTGGCGTGGA	0.991 ± 0.021
GTGGCTATGG	0.96188 ± 0.00027
